{"source": "a protein production outcome set (Wang et al. 2014)", "assay": "label from the status in PepcDB records"}
{"sequence": "MLMNNRVNNMMRTYKFRIYISKSIQETIEEHLNICRYLYNYLLEQKTKNPKLNKGDTQKLITEHKKENPELKKVHSKALQMVNNKLWGNLKALGKLKQNGHKVGKLRFKSSKNHYKTIEYNQSGFKIKDNKLYLSKIGEISIKLHRKIKGEIKGVIIKKELTNKWFAFFQVEEEPKPLPKTNKVVGIDLGIDGYTIDSDGNKFENPKFIDETLDKIKKVQKNLSRKVRGSNNYKKTKLKLIKVYDKLNNQKNDFLHKLSRYYINNYDKIVLEDLNIKSMVENKKGQKTLNRHILDGSWKKFINLLLYKAEGAGREVILINPAYTSKKCFNCGCVVSSLRLSDRIFFCPNCGWKIDRDYNASLNILKSGLGESVVPAEGRPLLRVIPYIKVISGQVSPMNQEALPEGRGLRKPKGFRSTPSVREG", "values": [{"measurement": "protein production", "value": "failed"}]}
{"sequence": "MVQTKRYAGLTAANTKKVAMAAPMFSIIIPTLNVAAVLPACLDSIARQTCGDFELVLVDGGSTDETLDIANIFAPNLGERLIIHRDTDQGVYDAMNRGVDLATGTWLLFLGADDSLYEADTLARVAAFIGEHEPSDLVYGDVIMRSTNFRWGGAFDLDRLLFKRNICHQAIFYRRGLFGTIGPYNLRYRVLADWDFNIRCFSNPALVTRYMHVVVASYNEFGGLSNTIVDKEFLKRLPMSTRLGIRLVIVLVRRWPKVISRAMVMRTVISWRRRR", "values": [{"measurement": "protein production", "value": "failed"}]}
{"sequence": "MARPKSKTKKILFAVEIIVLLLFIGGLYVYGQLNSKLDKINQPVLDDSKIKVNQEVQDSIDSQESTLTGYTTYALFGIDHRDKNTALGGENSDTIIIASVNNDTKDVKLVSVYRDTLLNLGNDTYSKANAAYAYGEAEQAITMLNTNLDLNISEYATVNFNALTTIIDDLGGLDMDMSYAEIVHMNNYCVETSEETGKDYTPIELPDRPDDIEAVQYHYHLNGVQATSYCRIRYTASLDMGRTERQRRVIQMIVSKAKSAGLGKIFKIMDDVFPMVTTSMTKDEILQLLPTLIGYSVDDTTGFPTSYKFSNVKGSIIVPTTLETNVIELHKFLYGDEAYTPSATVKANSEKILEIVGGESSLDDKQATVEENTTNDTVIFEKNGSGWSDTSSDYGSDSDSSGGGDYSGDETDNSGGSSSGGGDYSNDGSDNSGGDSSGGEDYEGPTTPEPDYGGDDNGGGDTGGDESGGGDTGGDESGGGDIVDEGSGDDSGAAAEATGTPDAA", "values": [{"measurement": "protein production", "value": "failed"}]}
{"sequence": "MSLRIRVPATTANLGPGFDSCGLALTLYLTLDIGAEADSWYIEHNIGGGIPHDETNVIIETALNLAPNLTPHHLVMTCDIPPARGLGSSSAAVVAGIELANTLAELNLSKEEKVRIAAEIEGHPDNVAPAVLGNWVVGAKLDGEDFYVRHLFPDCALIAFIPKAELLTSESRGVLPDTLPFKEAVQASSIANVMIAAILRNDMALAGEMMERDLWHEKYRSQLVPHLTQIRDVAKSQGAYAACLSGAGPTVLVFAPRNLANTLQTSLQTLEIDADVLLLDVEGSGAEVFREGHHHHHH", "values": [{"measurement": "protein production", "value": "not failed"}]}
{"sequence": "MQRTLDITQAMIDGYGRINGDNDIIHYDHDYAVQRGFRGTLLHGPHMTALAADLGARRYASDWLYRGKLHTKWIGPVCPGDTFVAALNEQGEIEAVSGGKTVMVGSASLAD", "values": [{"measurement": "protein production", "value": "failed"}]}
{"sequence": "SGDERFTLRIKDLRTGELLPDIIEDIFYGVAFSPDGTRLFYTVVDDSWRPYQVKSHILGTPVAEDEVLYQEDDVAMWLGFDLSSDRRHLVLSIGCSEFSETRLLRFEDYDAGLHTVISREHHILYEAEPFLLDGKETLLLTHNKDAINSMVSLVDPAELSKPLAEQHWRTVVEHSDDVRVNGAGVTSTHLVLSVRKDTIERVQVLPLAGLGTATQGAPVEPAFHEELYTAGVSGSDYESPVIRMGYTSYFTPSRVYDFVLPTAEQPGGELLLRKESPVLGGYSASDYVATREWATADDGTQVPLSVLRHASVQQDGTAAGLVYGYGSYELSMDPGFGVARLSLLDRGIVMVIAHIRGGGELGRKWYEDGKKFTKKNTFTDFIAATDWLAGSGWVDPSRIAAMGGSAGGLLMGAVANMAPEKYAAVVAQVPFVDALTTILDPELPLSALEWEEWGNPITDPEAYAYMKSYTPYENVGAVPYPKIAAVTSFNDTRVLYVEPAKWVQALRSASTGSEPIVMKIEMDGGHGGASGRYVQWRERAWDYAFIADSVG", "values": [{"measurement": "protein production", "value": "failed"}]}
{"sequence": "FGLEGLPKHLKRIPLECLVEAKSYLRQYPQVDSERIGIYGRSKGAELVLAEESIFNDVQCLVLNSPSDVVDEGIIGKWNSHTSSWTHLQKELPYQKFRFRDYLFSKLFRKDFPKDCSARIDIGQMHSPILLLESTVDEIWDASSAIDDIVSHYKGHYITFKKYHETGHMLTVAYQPNHRYRKDWHLLMKESEDSWLATIHFFDRHLK", "values": [{"measurement": "protein production", "value": "failed"}]}
{"sequence": "MPDPKPEVLDFLLSRRSRPAKTLALPVPDRAALAPILTGALRTPDHGKLEPWRLIVLEAGAMPRLAALADARAEALALDPDKSAKGRAQFAQSHLAVVVVARPEPSDKVPEIEQILSAGAVCLSLLNAAQAAGWGANWLTGWPAYDRGFLREGLGLAETEFVAGIVHIGSETVAPPERPRPDVASLTTWVSE", "values": [{"measurement": "protein production", "value": "failed"}]}
{"sequence": "MSSLALRSPALALALTLGGLLLCGPVQAQQANSANDMVGRMQYRISELERLVQDLTGKVEQSLYENRQLQTKLENAQSDIDFRLNALESAGPAAAAPANSVPSSARPTASAGAGKQGTPAPAEGVLGFPGKTAPAQGAASAARPAAAGALPAGSENDQYNYAFSLLRNADYPAAEQAFKAFLDQHPKGSLAGNAQYWLGETYYVRGDYEQAAVAFMGGYQSHPDSSKGPDNLLKLGLAMANLGKSKEACAAFGRLESQYPKAADAIKRRAKEGMSKLGC", "values": [{"measurement": "protein production", "value": "failed"}]}
{"sequence": "MIVFVRFNSSYGFPVEVDSDTSIFQLKEVVAKRQGVPADQLRVIFAGKELQNHLTVQNCDLEQQSIVHIVQRPQRKSHETNASGGDKPQSTPEGSIWEPRSLTRVDLSSHILPADSVGLAVILDTDSKSDSEAARGPAAKPTYHSFFVYCKGPCHKVQPGKLRVQCGTCRQATLTLAQGPSCWDDVLIPNRMSGECQSPDCPGTRAEFFFKCGAHPTSDKDTSVALNLITNNSRSIPCIACTDVRNPVLVFQCNHRHVICLDCFHLYCVTRLNDRQFVHDAQLGYSLPCVAGCPNSLIKELHHFRILGEEQYNRYQQYGAEECVLQMGGVLCPRPGCGAGLLPEQGQRKVTCEGGNGLGCGFVFCRDCKEAYHEGECDSMFEASGATSQAYRVDQRAAEQARWEEASKETIKKTTKPCPRCNVPIEKNGGCMHMKCPQPQCKLEWCWNCGCEWNRACMGDHWFDV", "values": [{"measurement": "protein production", "value": "failed"}]}
{"sequence": "MFNIKENQTTVKKEILAGITTFFTMVYIVVVNPSILSGTGVPFDQVFTATIIAAVVGTLWMALAANFPIAIAPGMGLNVYFAVSVVGSSNGEISYQTAFSTVFAAGILFIILSLTPLRKQLIEAIPANLKYGITAGIGLFIAFVGLRGAGIITANEANLVGLGNLHSPGVILALIGLAFSVVLMVMNVSGALFFGMILTGLIAFFTGQLEFTKGIMSMPHLPEKLIVTNPFAAFGDVIHYGLYSVVFSFLLVTIFDTTGTMIGVAEQAGLMKNNKLPNARKALLADSTATTVGAMFGTSPTTAYIESSAGVAAGGRTGLTSLTVAVLFGAALFFSPLVSAVSGIAAITSPALIIVGSMMIGAVTNIRWKELDEAFPAFLVILTMPLTSSIATGISLGFIAYPIVKAAKGKWREIHPLVFVFAVLFFIHLFFLEGH", "values": [{"measurement": "protein production", "value": "failed"}]}
{"sequence": "MELKTAADSNFSESEESPETKGIRILEGDPKKAIIKLAVPMIVAMSVQTLYQLIDTFWVSGLGADALAAMGFVFPFYFISMALSNGLGIGGGAAISRKIGARDKAGADNVAVHTIIIMMLLVLIFTIPFYVFAPHIFSLVGAGKTTDLAVAYARVIFLGSIVIFFTNVANSILRSEGDSKRAMYAMVLGAALNIVIDPIFIYTFKMGIAGAAWATLLSLAVSSAMMLNWLFFKKDTFVSFDFKDFSFEKSIINDIFRIAVPASAQQLSMSLSMLVLNLIIVNVSSTDGVAVYSTGWRVATIAIAPLVGIATAVVSVSGAAFGAKDFEKAKTAHTYAVKVGLLIEGGVAAFTFIFAPQIAAVFTQTEEAAHIAPDLIQFLRIICIFYPTVSLGMLSTSLFQGAGKGFSALTANLLRTIVFTPLFAAFFAFNLNMGQVGAWWGIVAGNAIGAGVVYVWVKLYLSTILKTGPLHKPFEQGI", "values": [{"measurement": "protein production", "value": "failed"}]}
{"sequence": "MEMRFFVLGAGSWGTVFAQMLHENGEEVILWARRKEIVDLINVSHTSPYVEESKITVRATNDLEEIKKEDILVIAIPVQYIREHLLRLPVKPSMVLNLSKGIEIKTGKRVSEIVEEILGCPYAVLSGPSHAEEVAKKLPTAVTLAGENSKELQKRISTEYFRVYTCEDVVGVEIAGALKNVIAIAAGILDGFGGWDNAKAALETRGIYEIARFGMFFGADQKTFMGLAGIGDLMVTCNSRYSRNRRFGELIARGFNPLKLLESSNQVVEGAFTVKAVMKIAKENKIDMPISEEVYRVVYEGKPPLQSMRDLMRRSLKDEFWASVVDSSL", "values": [{"measurement": "protein production", "value": "not failed"}]}
{"sequence": "MAVMARHESYYGNTKPAKLNEEKVTRVRFYLHDTLSGQNPTAVRIAHANLTGGSASPVGFGSLFVIDDPLTVGPEKHSKEIGNGQGMYVSGCKDLSKFTIVMYADLAFTAGKFNGSSISIFSRNPVAEEVGEREIAIVGGRGKFRMARGFVKVKTNKIDMKTGDAVLRYDATVYHY", "values": [{"measurement": "protein production", "value": "failed"}]}
{"sequence": "MDKALTNRVIILSFDCLSALDFPILQKLPHFQSLIKKGTVVEKVEPIYPSVTYPSHSTIVTGNYPNKHGVVSNTLLQPGRESPDWHWYRKSIKGTTLYDEAHKANLTTAALLWPVTGRANIDYNLPEIFPNRPWQNQVLVSLFSGSPLYQLDLNRRFGHIRNGLSQPELDDFVLASAVHTIQTKKPNVMFVHFTDLDTQRHYHGFESKETIAAIHRHDERLGQIIQALKDSDLYEESTIIALGDHSALSENKAIQLNVLFHQKGLISVNSKGNLVDWKVYCQSCDGSAYVYVKDKNDTDTIREVQLLLEELLQHKQNGIEFILHDEDAKECGADGNCLFMLEAREGYYFTENYTGDFIKEITEKDVTPSKKYTFGTHGYSPTKPNYETIFIAAGKGIKSGVTIPYMRLIDEGPTIARLLGLHLGETDGSIVEDLLQL", "values": [{"measurement": "protein production", "value": "failed"}]}
{"sequence": "MSLKIDAVDLFYLSMPEVTDAADGSQDALLVRVAAGGHIGWGECEAAPLPSIAAFVCPKSHGVCRPVSDSVLGQRLDGPDDIARIAALVGYNSMDLLQAPHMLSGIEMALWDLLGRRLSAPAWALLGYSASHGKRPYASLLFGDTPQETLERARAARRDGFAAVKFGWGPIGRGTVAADADQIMAAREGLGPDGDLMVDVGQIFGEDVEAAAARLPTLDAAGVLWLEEPFDAGALAAHAALAGRGARVRIAGGEAAHNFHMAQHLMDYGRIGFIQIDCGRIGGLGPAKRVADAAQARGITYVNHTFTSHLALSASLQPFAGLEADRICEYPAAPQQLALDITGDHIRPDAEGLIRAPEAPGLGLQVAASALRRYLVETEIRIGGQLIYRTPQLEGHHHHHH", "values": [{"measurement": "protein production", "value": "not failed"}]}
{"sequence": "RLNFLDTLGRAVTEATDPDQIMAITTRMLVEHLGLSSCAYAVMDPDEDGFTICGDAVTPGSPRLVGHYHLHDFGRLAVSRLRSGLALVINDNLRELAADEAATYQAIGITATICMPLIKGGRLTALMAIHDRVPRAWTDYEQTLISEVTERCWAHIQRAQAHAEVREAMAALEALNTTLE", "values": [{"measurement": "protein production", "value": "failed"}]}
{"sequence": "MSLTPRNATVAVIGAGDYIGAEIAKKFAAEGFTVFAGRRNGEKLAPLVAEIEAAGGRIVARSLDARNEDEVTAFLNAADAHAPLEVTIFNVGANVNFPILETTDRVFRKVWEMACWAGFVSGRESARLMLAHGQGKIFFTGATASLRGGSGFAAFASAKFGLRAVAQSMARELMPKNIHVAHLIIDSGVDTAWVRERREQMFGKDALANPDLLMPPAAVAGAYWQLYQQPKSAWTFEMEIRPYGEGHHHHHH", "values": [{"measurement": "protein production", "value": "not failed"}]}
{"sequence": "MTGEWKECKLREIASEIKSGGTPSTKHQEYYGGIIPWLNTKEIHFNRIRDTDIKITEGGLNNSSAKWVKENSIIVAMYGATAGKIAINKIPLTTNQACCNITPDSEKADYNFVYYNLCHRYDELVNLSCGAAQQNLNVGLITNLDIILPPITEQCAIASVLSSLDDKIDLLHRQNKTLEAMAETLFRQWFVEEADEDWEEGFLPDEFDFTMGQSPPGTSYNQEGVGKPMFQGNADFGFRFPEERVYTTEPTRLAYPHDTLISVRAPVGAQNMAKVECCIGRGVSAFRYKANNDFYTYTYFKLRSLMDEIKKFNDEGTVFGSISKTDFLQMGIAIPPEDIIEKFEIHAKPLNDKVIENCIQIKLLEVMRDTLLPKLMSGEVRVEG", "values": [{"measurement": "protein production", "value": "failed"}]}
